Measurements published in the supplement of paper PMC11502859.

These substances were tested on HEK293T (assay: median enrichment of reporter reads in eGFP-reduced (low/intermediate) vs eGFP-high sorted cells (eGFP-extension fusion abundance) (ratio); higher = stronger loss of eGFP-fusion protein abundance (more destabilising extension)).
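Further: lentiviral eGFP-IRES-mCherry reporter pool sorted by FACS 96 h post-transduction, gated on mCherry-high cells, Illumina read counts normalized per million, median across four biological replicates.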

Substance | median enrichment
SDSESN [MCM6] | 0.12
RALVPWQRDEKLQALSPAWAGSGARGCDSSRRVETLGWTGGGQRPAGGAPGMCPDMVNL [VAV1] | 1.76
SNLSPRRPEVNRHLGRGRACV [NAXD] | 1.3
PPPPPPPPP [Pro09] | 3.45
QKCGKAFTKSSYCVQHLKFNTEQMQYKCNDSGRTFIILEGL [ZNF736] | 4.28
LRLSISRDMVLTQQFPVMAKCSI [IL13RA2] | 41.5
YNLLLIIISEIISGSPWTTS [ZIC5] | 5.16
RTILELTRFVCL [KRTAP20-1] | 7.89
CSPMPAHL [CDNF] | 7.02
GGGSRSDQLIAHMLCLDME [HNRNPAB] | 3.08
QPWSITLPPSPGTTGPITFECCIWISRCLCGSLPHFSWT [UBE2Q1] | 7.69
YILKTQPSSKRHAPPHSPGPGRGGCSS [ADORA1] | 2.57
CGPEASWVSLGPQKLIKE [PCP2] | 0.292
QHLVQQ [IFNA13] | 0.328
SRDLDLGGVVRSSGRVPPGSPGEYMSPALGGVCYWPPTFLPRWTVLL [OXCT2] | 3.71
SWTGLFLTSDLSQCLFCPGSDFPVVLPPFRIKGLIVYPEFTSFGVYI [COBL] | 13
SCLY [GLRX2] | 1.01
QRRERCASILEGQQEAELFCLDSHHGPFAENCLGFQQLHICICEL [TAFA4] | 18.2
SRMGLSL [APOBEC3G] | 0.634
RKEKQLLPLSWDRGVGKSAGPHGAWGSQTEAPQNFLQCLRDAWMWPLPLLLTLKDSQTH [LY9] | 4.97
LNKLKMDLFFFNGNRTLCQITSYRNNSLFLTNLVLPYTSTGF [PTEN] | 9.05
YYYY [Tyr04] | 4.17

Substance | median enrichment
QSVISFICCINV [LRP1B] | 11.7
WPDLSERHGYHRMKVEL [CUTC] | 12
QQFSHFLHLSDRTHHLCLP [ZDHHC15] | 20.5
LPGPGFAPAPASGPPGSRCGGCGPRAGARRRRRRREGARPAGRNRSDSRQEPGTEPGTEQQVRPGPPRLGADSDALGGSRKGG [NKX6-2] | 6.82
SPAPHHPQEHSTHHRQPLETSYMSLGAEREVPSPCRTRSCMCLTQVWTGGHLGAGQGHPSLHIT [RABEPK] | 7.59
YPSLCHWVECAFRAS [ARHGEF6] | 7.57
CGGLVSELGLCRESLFCVSHPLPDPSLCLYSLNSVEFN [MCM3] | 13.4
LLLPGGEQPTRCRFALRGASYIGTLLSLQNDDTNANDQM [TFB1M] | 5.57
QQQYYRGLNNTTKSIWIA [NCAM2] | 25
WRPAPARMGGGVERRTPIG [NSG2] | 3.66
KMDPCEIYHSLVSPSFLSFLNSTFWRDFPK [OR9Q2] | 3.34
WLHW [RIMKLB] | 3.98
WADPVGIRAAPSGAGTAGTAAILLLLVFFLLSKINCGNILVSCDVRCSFVVKFAIDIEIMTSVFPEIKHVSTQDFLDHSRKCQ [KISS1R] | 10.9
YYYYYYYYYY [Tyr10] | 6.9
KGRINK [NPIPA1] | 0.274
DNPHPHCFWGSLSHLSHPVSCLCLSWCLSGLLSVSFCLSVSLPTPAPSFQCSGWLSLPFSPSLSALGSVSTAGPKVKVLPLPE [CCDC97] | 5.65
NNNNN [Asn05] | 0.217
LAHEPTRMSSDFQPHPSGSCAKGGGRR [TREM1] | 0.974
WMLSRSWRFKKKCRMAV [OR52D1] | 23.1
SWRRPMCIFF [FRAS1] | 9.68
ITGTACLGTRFPPAAVTMVASTATPGVQSTAPCPPCVPRSRGSVHHSSPRWRAGLPGGSPVALPWLWGWRDLARMNPPVPGTL [PIGQ] | 3.37
QAPTLLLLALLPASVQRTGRYWWEALCLAPQLPVWASKHNGPSRSLVETGVVVPNLPSALPLHRTQRPQALQGVLVPAFPRTS [AMIGO3] | 1.8

Substance | median enrichment
WPEPLADITAGDEEPGLLLLLPVAPGVEVG [LIMD1] | 12
RSWPPLIYSTSLAPHLH [TNFRSF6B] | 8.26
TTTTTTTT [Thr08] | 0.414
SRPWSESAPVGILPPPCWPPFSPQPLR [PGAP3] | 14.1
SCVGHPTRHPSSLRRPVGRQGSRGFALLLSSRVMTLLSISSHYSPCLALRAALLSSQAAPVPSPSTLEWSSSACFPSHRPATT [RAB15] | 5.5
SETAGFLLLFFLVVQLSPPPLLSCLLIWSFSLFSACHVFSGTYLHPPQHQFP [CNTNAP5] | 11.4
QHLQEEEEKEGTPDWI [GPR158] | 1.29
CLL [ACSBG2] | 7.26
RASVGG [MDFI] | 9.54
CSSVYELPFHSAFRNYILAFIFNLPTYFK [ATM] | 8.5
LAWDTEGPVRSIYCNSNCNLVLRRRESMFGQQNFSLSLKFTASISFPY [NUPR2] | 7.51
RHSTRPPGLLGPPTPTALTAFPIAPGSSPPLGGTVKGSSLTRRLLLPLGSQLPPQESLLGRTLRTPSLHPVVL [KLC4] | 9.71
WTGFAYLVLTLHHHHLMPTCPHPAELLSGHSLLLPFLLPLALPGPACTPVGWKCTAGSGSGSAPLWDPTFFSSLLLK [PTPN23] | 7.32
PPPPP [Pro05] | 0.529
YGFSPFGDHLSVSPTHYPICPPPQLGPRGPTLHFWGVTDFVHGFKVYFYGLVIAEFLFWGEGKGASPLLLALRPRRLLCAANC [TSPYL2] | 5.92
RRTACSDQRAQRPEDKSGGDSMGMGVGCLRERTHGLGRGERCMGITFARAAYLKVTVSSGTAGDRYLLLQEINYPENSTQPVT [LEXM] | 13.9
PPPP [Pro04] | 0.659
RCVHSISEETTHRSFFSLF [GIPC2] | 8.59
ESHMRRTACSDQRAQRPEDKSGGDSMGMGVGCLRERTHGLGRGERCMGITFARAAYLKVTVSSGTAGDRYLLLQEINYPENST [LEXM] | 5.93
LRISQG [ESRRB] | 1.67
YSQPQLMPSQSQPPVTPSQSQPRVTPSQSQPHVTPYRSKSGKQKQSVPIPKTVSRKGTLKK [ADAM29] | 0.413
GGLLPLGPLTLSGWWTTKYNPVYNLKIYFTFVLLYLFIKG [SMAD4] | 5.18

Substance | median enrichment
YDSISP [CBLN4] | 0.384
YYYYYYYYY [Tyr09] | 4.03
RRLSISRDMVLTQQFPVMAKCSI [IL13RA2] | 6.6
GLPS [TMEM107] | 0.716
YIRRHH [IFITM2] | 9.67
SPWGGGKG [C6orf47] | 1.46
QPTGDPDLILNRRRLRDSRRHRSCPQWTPMNPSQPGPLTKTTRTSWELWDSLDSAVKDD [LILRB5] | 1.48
WYHMFSWYVN [ABHD10] | 5.5
GGGTGLTF [CARS] | 0.299
SGLQGRQLSFV [SYT17] | 0.686
SNNQQYSRSNQHHHVIMVLWHICNIKILN [ACOX2] | 5.11
WRGLQGSLLWVPT [RNF152] | 6.67
WARTSPGTAGGPPPPPSHSVTPGPSGAGWRPRSPLLRSPRS [NPB] | 3.31
RGQAAPVLGEGG [DEPDC5] | 3.76
RVT [OR2M3] | 0.571
LWLSCLQYLNFKSKSIY [IFNG] | 13.2
YASHLASWVCRSSRLAPSMYPGEIPARHPPPGPG [LSP1] | 4.74
LRICRRFPFMKH [CUL4A] | 8.83
RGSGQECHSQCPDPEIGPIPCLQPCLEAIQ [SLC22A14] | 2.88
